System: His6-CusR (Pseudomonas paraeruginosa IHMA87)
Assay: EMSA
Conditions: apparent equilibrium constant (Keq); unphosphorylated CusR; 20 mM HEPES pH 7.9, 80 mM KCl, 20 mM MgCl2, 0.8 mM EDTA, 7.5% glycerol, 0.1 mM DTT, 25 C; 0.5 nM probe; native 5% TBE gel at 4 C

## PcusR probe (pcoA2-cusR intergenic 60-mer)
  Kd: 25 nM

Source: paper PMC11195947
